What is called Kd is the free concentration of one partner at which half of the binding sites on the other are occupied at equilibrium, for simple one-to-one binding. High values mean lower affinity, low ones higher affinity. The stoichiometry N is the number of molecules, sites or subunits per partner or assembly.

The source of these data is paper PMC9065035, “Structural basis for the synthesis of the core 1 structure by C1GalT1” (Nature Communications, 2022).

B3: DmC1GalT1^S73-Q388 (Drosophila melanogaster C1GalT1, residues S73-Q388) (enzyme)
chain: not shown
modifications: N-glycans trimmed with Endoglycosidase-H (expressed with kifunensine)
notes: C1GalT1 (core 1 synthase) of Drosophila melanogaster, residues S73-Q388; Expressed with the honey bee mellitin secretion signal in front (pFastBac1-mellitin-DmC1GalT1-6His); two molecules in the asymmetric unit arranged as a homodimer; also called truncated version of DmC1GalT1; mellitin-DmC1GalT1-6His; source: High Five insect cells (baculovirus), secreted, purified (His-Trap, Endo-H, MBP-Trap, …)

Ends that are not written are not given here. * marks the point of attachment. αGalNAc = CC(=O)N[C@@H]1[C@@H](O)[C@@H](O)[C@@H](CO)O[C@@H]1*

One data set concerns the target DmC1GalT1^T43-Q388 R152A (Drosophila melanogaster, UniProt Q7K237 43-388, R152A). In words: cell-based or functional assay.
The target of another data set is DmC1GalT1^T43-Q388 Y213A (Drosophila melanogaster, UniProt Q7K237 43-388, Y213A). In words: cell-based or functional assay.
Another data set concerns the target DmC1GalT1^T43-Q388 Y325A (Drosophila melanogaster, UniProt Q7K237 43-388, Y325A). In words: cell-based or functional assay.
Data set [1] has as its target B3. In words: crystal structure; 15 mg/mL DmC1GalT1^S73-Q388, 5 mM UDP, 2 mM MnCl2, 5 mM APDT*RP; space group P2_(1); 2.40 Å. To be noted: both partners purified.
Data set [2] addresses T1, DmC1GalT1^T43-Q388 (Drosophila melanogaster C1GalT1, residues T43-Q388) (Drosophila melanogaster).
T1 construct: N-glycosylated (lower eukaryotes' C1GalT1 are N-glycosylated); The pHLSec vector (AgeI/KpnI) may leave a few vector residues at both ends (surmise); the SEC was done with the S73-Q388 construct; also called core 1/T-synthase; DmC1GalT1-His; source: HEK293, transfected (pHLSec), secreted, purified (His-Trap, Superdex 75)
In words: ITC; under an excess of UDP: 2 mM (glyco)peptide titrated into DmC1GalT1^T43-Q388 (60 µM for APDT*RP and APDTRP, 50 µM for P4/P7); 20 °C; 25 mM TRIS pH 7.5, 150 mM NaCl, 1 mM UDP, 1 mM MnCl2; one-site model; duplicate. The conditions noted are these: both partners purified.

Data set [3] concerns the target T1, DmC1GalT1^T43-Q388 (Drosophila …). In words: ITC; in the absence of UDP: 2 mM glycopeptide titrated into 60 µM DmC1GalT1^T43-Q388; 20 °C; 25 mM TRIS pH 7.5, 150 mM NaCl, 1 mM MnCl2; one-site model; duplicate. To be noted: both partners purified. A general note: In ITC the heat of successive injections is recorded.
Data set [4] concerns the molecule itself. In words: crystal structure; 15 mg/mL DmC1GalT1^S73-Q388, 5 mM UDP, 2 mM MnCl2, 5 mM APDT*RP; space group P2_(1); 2.40 Å.
Data set [5] deals with T2, Drosophila melanogaster C1GalT1, residues T43-Q388 (DmC1GalT1^T43-Q388) (Drosophila melanogaster, UniProt Q7K237 43-388).
T2 construct: N-glycosylated when made in HEK293; also called core 1/T-synthase; source: HEK293, transfected (pHLSec), secreted, purified (His-Trap, Superdex 75)
In words: ITC; 2 mM glycopeptide titrated into the enzyme (60 uM for APDT*RP, 50 uM for P4/P7); excess of UDP: 25 mM TRIS pH 7.5, 150 mM NaCl, 1 mM UDP, 1 mM MnCl2; 20 °C; one-site model; duplicate. The conditions noted are these: both partners purified.

Data set [6] addresses T2, Drosophila melanogaster C1GalT1, …. In words: ITC; 2 mM glycopeptide titrated into 60 uM enzyme; no UDP: 25 mM TRIS pH 7.5, 150 mM NaCl, 1 mM MnCl2; 20 °C; one-site model; duplicate. The conditions noted are these: both partners purified.
Data set [7] concerns the molecule itself. In words: crystal structure; DmC1GalT1^S73-Q388 (15 mg/mL) with 5 mM UDP, 2 mM MnCl2 and 5 mM APDT*RP; space group P21; 2.40 Å.
Data set [8] concerns the molecule itself. In words: SEC; size exclusion chromatography of DmC1GalT1^S73-Q388 against protein markers of known molecular weight. Background: Size exclusion chromatography separates by hydrodynamic size, large species first.

B1: APDT*RP glycopeptide (MUC1 tandem repeat epitope with alpha-GalNAc on Thr) (peptide)
peptide: APDT(αGalNAc)RP-NH2
modifications: N-terminus assumed
SMILES: CC(=O)N[C@H]1[C@@H](O[C@H](C)[C@H](NC(=O)[C@H](CC(=O)O)NC(=O)[C@@H]2CCCN2C(=O)[C@H](C)N)C(=O)N[C@@H](CCCNC(=N)N)C(=O)N2CCC[C@H]2C(N)=O)O[C@H](CO)[C@H](O)[C@@H]1O
notes: source: synthetic peptide (Fmoc solid phase, Rink Amide MBHA resin, HPLC)
Take B1: the “glycosyltransferase activity relative to WT (UDP-Glo, 500 nM mutant, 500 μM UDP-Gal, 500 μM APDT*RP)” value in the data set with DmC1GalT1^T43-Q388 R152A was found to be 15 fold decrease; with DmC1GalT1^T43-Q388 Y213A, 25 fold decrease; with DmC1GalT1^T43-Q388 Y325A, 25 fold decrease. Moreover, the binding result in data set [1] is given as “binds”.

B2: P7 (YADT*GPF) glycopeptide (peptide)
peptide: YADT(αGalNAc)GPF-NH2
notes: designed acceptor glycopeptide; Made on Rink Amide resin, so a C-terminal amide is to be expected; source: synthetic peptide (solid-phase, Rink Amide MBHA resin, HPLC purified)
Consider B2, for which, in data set [2], the Kd amounted to 60 µM and the “stoichiometry N” value is 1.5. Also, in [3], binding was characterised by a dissociation constant (Kd) of 37.1 µM and the “stoichiometry N” value is 0.65.
In the case of B3, in data set [4], the “stoichiometry N” value stood at 2.

B4: P7 glycopeptide YADT*GPF (GalNAc on Thr) (peptide)
peptide: YADT(αGalNAc)GPF-NH2
notes: Asp at -1; Tied to the name P7 by the text (Asp at -1; ITC was done with P4 and P7 only besides APDT*RP); Made on Rink Amide MBHA resin, so probably a C-terminal amide (surmised); source: synthetic peptide (solid-phase synthesis, HPLC purified)
With B4, the Kd came to 60 µM in data set [5] and 37.1 µM in [6].

B5: DmC1GalT1^S73-Q388 (Drosophila melanogaster C1GalT1, residues S73-Q388) (enzyme)
chain: not shown
modifications: N-glycans trimmed with Endo-H
notes: C1GalT1 of Drosophila melanogaster, residues S73-Q388; Homodimer by SEC and in the crystal; also called truncated version of DmC1GalT1; DmC1GalT1-His
For the molecule B5, the “stoichiometry N” value in [7] and in data set [8] was 2 in each case.

B6: P4 (PAAT*GPY) glycopeptide (peptide)
peptide: PAAT(αGalNAc)GPY-NH2
notes: as for B2
Consider B6, for which, in data set [2], binding was put at a Kd of 60.4 µM and the “stoichiometry N” value was found to be 0.88. In data set [3], the affinity, expressed as Kd, was 41 µM and the “stoichiometry N” value is 0.98.

B7: P4 glycopeptide PAAT*GPY (GalNAc on Thr) (peptide)
peptide: PAAT(αGalNAc)GPY-NH2
notes: Tied to the name P4 by the residues that the text names for P4 (Pro1, Ala2, Ala3, Thr4, Gly5, Tyr7); Made on Rink Amide MBHA resin, so probably a C-terminal amide (surmised); source: synthetic peptide (solid-phase synthesis, HPLC purified)
For B7, the Kd in data set [5] came to 60.3 µM; in data set [6], 41 µM.
